According to patent US20030044400A1, “Composition and method for treating cells” (priority 2001, published 2003):

Columns and labels:
[1] = system: CCD 39 Lu (normal lung fibroblast); test: Fetuin-induced apoptosis, Hoechst staining confirmed by MTS assay; format: cell-based, Human
Experimental: (§1) The purified fetuin was tested on various cancer cell lines. […] The DNA condensation and breakage of nuclei which are the characteristics for apoptosis were observed by staining the cell with Hoechst dye at 0.1 ug/ml.
(§2) Various concentrations of Zn-charged fetuin prepared as described were incubated with cell lines for 6 hr. Percent of cell under apoptosis was determined by Hoechst staining and confirmed by MTS assay. The concentration of Zn-charged fetuin for the induction of 50% of cells under apoptosis (LD50) was determined. Each data represents the average of three assays.

Colo 205 cells = test: as above; format: cell-based, Human
Experimental: as §1, §2

Hep G2 cells = test: as above; format: cell-based, Human
Experimental: as §1, §2

PC-12 cells = test: Apoptosis of PC-12 cells in the presence of serum; format: cell-based; conditions: PC-12 cells in 10% horse serum+5% FBS; 5 uM Fetuin
Experimental: PC-12 cells were seeded in 10% heat-inactivated horse serum+5% FBS+RPMI 1640 media for 1-2 days and treated with 5 uM Fetuin. […] The apoptosis-inducing activity of Fetuin at high concentration can be applied in therapy of neuroblastoma.

P388 leukemia = test: P388 Leukemia Model; format: in vivo; conditions: P388-bearing DBA/2 mice; for Survivors: 10 per group
Experimental: All mice used were kept according to NIH standard regulation. The DBA/2 mice were divided into 4 groups, 10 mice in each group. The P388 innoculum tumor was induced by intraperitoneal injection of 10^6 cells per 0.1 ml innoculum. All doses were made up to a volume of 0.5 ml. Treatment was intraperitoneal injection of 0.5 ml saline (control), 0.002 ml of 10 mg/ml Fetuin (Group I), 0.02 ml (Group II) and 0.2 ml (Group III) for 10 days following tumor transplant. Mortalities were recorded daily. Results are expressed as the percent increase in life span (ILS) in Table 2.
ILS=100×Median Life Span Treated−Median Life Span Control

[2] = Hematological and Pathological Assessment of Fetuin in Balb/C Mice; format: in vivo
Experimental: The Balb/C mice weighing 20-30 g at six to eight weeks of age were divided in six animals per group, 3 female and 3 male, in this study. Fetuin is administered IV or IP at dose of 5 mg, 0.5 mg, 0.05 mg and 0.005 mg per 20 gm mouse for 7 days. Because the nutritional supplement has potential beneficial effects on the immune response, potential toxicity is determined by clinical hematological and classical pathological parameters.
Pre-study assessment of highest tolerated dose administration by IV or IP injection. The end-point is the highest non-lethal dose administered by each route. Animals are screened daily for signs of lethality and the total time of observation is seven days.
Clinical and histological assessment of highest tolerated and lessor doses of Fetuin. Seven days prior to the beginning of phase II each animal is bled to determine its background values for hematological and clinical chemistry parameters. The highest tolerated dose and the next lowest, as well as the vehicle are injected in a single injection by the best-tolerated route. After 24 hours the animals are sacrificed. Gross and microscopic pathologic examination are performed on the organs. Hematological, clinical chemistries and clinical pathology tests are performed: (1) Blood Collection and Analysis: Blood samples are collected from each mouse, one at the start of the experiment prior to receiving their injection of Fetuin and the second collected at the time of euthanasia. The samples are collected via retro-orbital sinus bleed, or tail bleed, under anesthesia. (2) Hematology: Approximately 125 ul of whole blood is collected in an EDTA tube at the specified time. The following hematological parameters are determined: White blood cell count (WBC), Red blood cell count (RBC), Hemoglobin (HGB), Hematocrit (HCT), Mean Corpuscular Volume (MCV), Mean Corpuscular Hemoglobin (MCH), Mean Corpuscular Hemoglobin […] (MCHC), Platelet count (PLT), WBC differential count. Whole blood samples for hematology are disposed of one week after analysis. (3) Clinical Chemistry: Approximately 125 ul of whole blood is collected in a tube containing no additives for serum at the specified times. Tests determine the following clinical chemistry parameters: Alanine aminotransferase (ALT) and Aspartate aminotransferase (AST). (4) Collection of Tissue: The following tissues are collected into 10% neutral buffered formalin (NBF): kidney, liver, lung, thymus, reproductive organ, heart, spleen and lymph nodes. Any abnormalities or gross pathology found at necroscopy are recorded for each animal. (5) Histopathology: Histology is done on the tissue samples submitted for each animal. The tissues will be paraffin-embedded, sectioned and stained with hematoxylin and eosin (H&E). A pathology reads the slides for apparent abnormalities.
Clinical and histological assessment of highest tolerated dose of Fetuin administered daily over 14 days. The highest tolerated dose as determined in Phase II and the vehicle is injected daily for fourteen consecutive days by the best-tolerated route. After 24 hours, one-half of the animals are sacrificed. The remainder are sacrificed after 14 days. Gross microscopic pathologic examination are performed on the organs recovered from all animals. (1) Blood collection and analysis: Blood sample is collected from each mouse, one at the start of the experiment prior to receiving their injection of Fetuin and the second collected at the time of euthanasia. The samples are collected via retro-orbital sinus bleed or tail bleed under anesthesia. (2) Hematology: Approximately 125 ul of whole blood is collected in an EDTA tube at the specified time. The following hematology parameters is determined: White blood cell count (WBC), Red blood cell count (RBC), Hemoglobin (HGB), Hematocrit (HCT), Mean Corpuscular Volume (MCV), Mean Corpuscular Hemoglobin (MCH), Mean Corpuscular Hemoglobin […] (MCHC), Platelet count (PLC), WBC differential count. […]

normal cell lines = test: Apoptosis in normal cell lines; format: cell-based; conditions: in 2-3 days

Fetuin: Fetal bovine fetuin purified from fetal bovine serum by modified Spiro method; 60 Kd glycoprotein, homologue of alpha 2-HS glycoprotein
LD50 of Fetuin-induced Apoptosis ([1]; CCD 39 Lu, Zn-charged fetuin, 6 hr, average of three assays): >100 µM | induction of apoptosis ([1]; CCD39Lu, purified fetuin, Hoechst dye 0.1 ug/ml): did not induce apoptosis | LD50 of Fetuin-induced Apoptosis (Colo 205 cells; Zn-charged fetuin, 6 hr, average of three assays): 5 µM | induction of apoptosis (Colo 205 cells; purified fetuin, Hoechst dye 0.1 ug/ml): strongly induced apoptosis | LD50 of Fetuin-induced Apoptosis (Hep G2 cells; Hep G2, Zn-charged fetuin, 6 hr, average of three assays): 20 µM | induction of apoptosis (Hep G2 cells; HepG2, purified fetuin, Hoechst dye 0.1 ug/ml): strongly induced apoptosis | apoptosis-inducing activity (PC-12 cells): apoptosis-inducing activity was observed | Survivors (P388 leukemia; 0.002 ml of 10 mg/ml Fetuin ip for 10 days, bracket (31) = day): 1 (31) | Survivors (P388 leukemia; 0.02 ml of 10 mg/ml Fetuin ip for 10 days, bracket (29) = day): 1 (29) | Survivors (P388 leukemia; 0.2 ml of 10 mg/ml Fetuin ip for 10 days (highest dose), bracket (58) = day, listed as Fetal fetuin): 8 | (ILS) Increased Life Span (P388 leukemia; 0.002 ml of 10 mg/ml Fetuin ip for 10 days): 29% | (ILS) Increased Life Span (P388 leukemia; 0.02 ml of 10 mg/ml Fetuin ip for 10 days): 17.2% | (ILS) Increased Life Span (P388 leukemia; 0.2 ml of 10 mg/ml Fetuin ip for 10 days (highest dose)): 141% | Blood glucose levels ([2]; Balb/C mice, 0.005 mg per animal): 13 mg/dL | Blood glucose levels ([2]; Balb/C mice, 0.05 mg Fetuin): 27 mg/dL | Blood glucose levels ([2]; Balb/C mice, 0.5 mg Fetuin): 25 mg/dL | Blood glucose levels ([2]; Balb/C mice, 5 mg Fetuin per animal): 41.6 mg/dL | cholesterol levels elevated compared to the lower doses ([2]; Balb/C mice, 5 mg per mouse, P<0.05): 14% | survival and clinical signs ([2]; Balb/C mice, 5, 0.5, 0.05 and 0.005 mg Fetuin via IP route, 7 days): survived for 7 days without any signs of distress | White Blood Cell (WBC) levels ([2]; Balb/C mice, 24 hrs after injection of various doses, p=0.126): within the normal limits | AST (Aspartate Aminotransferase) level ([2]; Balb/C mice, P=0.306): within the normal limits | ALT (Alanine Aminotransferase) level ([2]; Balb/C mice, P=0.444): within the normal limits | microscopic structure of tissues ([2]; Balb/C mice, all dosage groups): normal in architecture | body weight change ([2]; Balb/C mice, control vs Fetuin treated group): no significant body weight change | Blood Urinary Nitrogen (BUN) levels ([2]; Balb/C mice, highest and lowest dose groups, unrelated to dose): elevated | overall toxicity ([2]; Balb/c mouse): very low toxicity | red blood cell count, white blood cell count and platelet count ([2]; healthy animals, 5-fold increased dose): did not affect | safety by hematological, clinical chemistry and histopathological analysis ([2]; healthy mice, 2.5-5 fold higher dose than effective in cancer-bearing mice): no obvious adverse effect was observed | apoptosis in normal cell lines (normal cell lines): not the normal cell lines
